Laboratory results taken from patent US20030157096A1 (ZymoGenetics, published 2003).

How the values were obtained:
[1] = target: T1, CRF2-4 receptor, full-length, on transfected BaF3 or BHK cells (CRF2-4 alone) (UniProt Q08334 20-325, limits assumed); assay: flow cytometry, biotinylated IL-TIF-CEE plus PE-streptavidin on BaF3 transfectants (same results stated for BHK transfectants)
T1 construct: whole, on cells; The full-length receptor on cells is tied only to Genbank Z17227; also called CFR2-4; BaF3/CRF2-4
T1 sequence (looked up): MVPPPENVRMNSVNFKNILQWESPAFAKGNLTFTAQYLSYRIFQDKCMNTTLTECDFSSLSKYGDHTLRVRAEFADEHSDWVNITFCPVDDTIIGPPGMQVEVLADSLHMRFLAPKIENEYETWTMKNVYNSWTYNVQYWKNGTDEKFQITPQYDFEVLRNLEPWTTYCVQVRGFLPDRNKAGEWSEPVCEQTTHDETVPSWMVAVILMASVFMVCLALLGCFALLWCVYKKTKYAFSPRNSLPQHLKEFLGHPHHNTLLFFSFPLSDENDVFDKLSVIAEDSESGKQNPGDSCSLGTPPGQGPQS
Source text: (§1) To test the binding properties of the IL-TIF ligand to several potential receptor components, BaF3 and BHK cells were transfected with expression plasmids including zcytor11 alone, CRF2-4 alone (Genbank Accession No. Z17227), zcytor11 (SEQ ID NO:1) and CRF2-4, or zcytoR11 and pDIRS1 (WIPO Publication WO99/46379, Schering Corporation, 1999), as described above. Untransfected BaF3 and BHK cells were included as controls. Cells were resuspended in FACS wash buffer (WB: PBS/1%BSA, supplemented with 3% human Ultraserum (Gemini BioProducts, Calabasas, Calif.)) counted and 1×10⁶ of each type were aliquoted into 5 ml polystyrene tubes. Cells were washed and pelleted, then incubated for 20 min on ice with 100 μl of WB only, or WB plus 10 μg/ml or 1 μg/ml biotinylated zcytolO protein. Cells were washed with 1.5 ml WB and pelleted, then incubated in 100 μl of 2.5 μg/ml phycoerthyrin-conjugated streptavidin (PE-SA, PharMingen, San Diego, Calif.) for another 20 min on ice. Cells were washed as before, resuspended in 0.4 ml of WB and analyzed on a FACScan using CellQuest software (Becton Dickinson, Mountain View, Calif.).

[2] = target: T2, zcytor11 receptor, full-length, on transfected BaF3 or BHK cells (zcytor11 alone) (human, UniProt Q8N6P7 18-574); assay: flow cytometry, biotinylated IL-TIF-CEE at 10 or 1 µg/ml plus PE-streptavidin on BaF3 transfectants (same results stated for BHK transfectants)
T2 construct: also called BaF3/zcytor11
T2 sequence: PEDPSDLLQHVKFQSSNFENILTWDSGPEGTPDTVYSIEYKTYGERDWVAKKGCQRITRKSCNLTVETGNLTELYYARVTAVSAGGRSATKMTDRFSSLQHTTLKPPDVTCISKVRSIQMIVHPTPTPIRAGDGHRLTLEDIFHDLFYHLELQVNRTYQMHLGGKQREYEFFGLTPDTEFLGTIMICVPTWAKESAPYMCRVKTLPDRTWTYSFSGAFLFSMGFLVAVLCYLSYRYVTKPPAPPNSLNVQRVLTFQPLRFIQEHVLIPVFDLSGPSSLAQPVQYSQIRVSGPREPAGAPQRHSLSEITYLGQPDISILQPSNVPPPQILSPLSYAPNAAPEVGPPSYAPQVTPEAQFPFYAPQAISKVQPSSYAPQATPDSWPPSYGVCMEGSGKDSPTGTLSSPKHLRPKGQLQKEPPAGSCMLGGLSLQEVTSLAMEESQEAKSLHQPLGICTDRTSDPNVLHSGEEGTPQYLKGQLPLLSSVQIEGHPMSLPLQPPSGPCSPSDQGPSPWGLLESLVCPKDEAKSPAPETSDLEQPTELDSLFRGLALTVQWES
Source text: as §1

[3] = target: T3, zcytor11 and CRF2-4 receptors co-expressed on transfected BaF3 or BHK cells (human, UniProt Q08334 20-325, limits assumed); assay: as above
T3 construct: whole, on cells; The two receptor subunits are co-transfected in one cell line; also called zcytor11/CRF2-4; BaF3/zcytor11/CRF2-4
T3 sequence 1: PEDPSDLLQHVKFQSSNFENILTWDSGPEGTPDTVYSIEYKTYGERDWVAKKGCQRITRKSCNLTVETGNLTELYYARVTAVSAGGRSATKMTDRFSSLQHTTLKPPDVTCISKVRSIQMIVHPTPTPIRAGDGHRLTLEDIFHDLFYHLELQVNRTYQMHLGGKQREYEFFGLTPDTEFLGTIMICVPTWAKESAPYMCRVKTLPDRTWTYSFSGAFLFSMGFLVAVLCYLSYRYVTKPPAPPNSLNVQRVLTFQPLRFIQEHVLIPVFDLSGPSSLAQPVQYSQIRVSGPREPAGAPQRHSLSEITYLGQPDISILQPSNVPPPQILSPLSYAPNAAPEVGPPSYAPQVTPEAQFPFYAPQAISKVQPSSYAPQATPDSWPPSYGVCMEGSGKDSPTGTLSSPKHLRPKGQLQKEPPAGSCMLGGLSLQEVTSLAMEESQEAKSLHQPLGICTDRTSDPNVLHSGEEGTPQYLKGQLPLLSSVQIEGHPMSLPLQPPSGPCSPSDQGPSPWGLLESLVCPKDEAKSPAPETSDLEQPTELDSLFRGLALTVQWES
T3 sequence 2: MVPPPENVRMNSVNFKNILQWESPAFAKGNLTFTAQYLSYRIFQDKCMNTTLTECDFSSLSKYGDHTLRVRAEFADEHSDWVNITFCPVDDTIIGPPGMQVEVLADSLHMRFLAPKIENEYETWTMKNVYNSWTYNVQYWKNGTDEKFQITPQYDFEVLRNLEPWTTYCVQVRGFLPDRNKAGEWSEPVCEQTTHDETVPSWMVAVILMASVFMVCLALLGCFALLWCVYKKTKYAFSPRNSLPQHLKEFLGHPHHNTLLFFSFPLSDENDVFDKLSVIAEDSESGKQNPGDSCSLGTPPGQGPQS
Source text: as §1

- binding result [2]: binds
- binding result [3]: binds
B1: biotinylated human IL-TIF-CEE (ligand)
chain: APISSHCRLDKSNFQQPYITNRTFMLAKEASLADNNTDVRLIGEKLFHGVSMSERCYLMKQVLNFTLEEVLFPQSDRFQPYMQEVVPFLARLSNRLSTCHIEGDDLHIQRNVQKLKDTVKKLGESGEIKAIGELDLLFMSLRNACIEYMPME
modifications: biotinylated with EZ-link Sulfo-NHS-LC-biotin (sites not given)
notes: also called biotin-IL-TIF; IL-TIF ligand
- binding result [1]: no binding (tested: 10 µg/ml or 1 µg/ml biotinylated protein)
